The target in test [1] is T1, extracellular domain of activin receptor type IIB (ActRIIBecd), biotinylated (Homo sapiens (Human), UniProt Q13705 27-117, amino-biotinylated with amine-PEG3-Biotin).
T1 construct: immobilised on a streptavidin-coated sensor chip; also called biotinylated ActRIIBecd; extracellular domain of ActRIIB
T1 sequence: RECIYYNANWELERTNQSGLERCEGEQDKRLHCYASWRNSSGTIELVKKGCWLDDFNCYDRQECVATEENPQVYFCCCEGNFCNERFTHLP
Put plainly: BIAcore SPR, biotinylated ActRIIBecd on chip; SD ±11.20 nM. On the procedure:
(§1) Biosensor experiments. In one embodiment, experiments were performed on a BIAcore™ T100/T200 instrument (Pharmacia Biosensor AB) in the multichannel mode (serial flow path involving flow cells 1+2+3+4). Flow rate was 10 μl/min; temperature was 25° C.; and data were recorded at 2.5 points/s. All four segments of a sensor chip CMS were coated with streptavidin (Sigma) to a density of 2000 pg/mm² (2000 resonance units) by the aminocoupling procedure. ActRIIBecd (10 mg) and amine-PEG3-Biotin (10 mg, Pierce, Rockford, Ill.) were dissolved in 200 μl H₂O and 10 mg NaCNBH₃ was added to prepare biotinylated ActRIIBecd. The reaction mixture was heated at 70° C. for 24 h, after that a further 10 mg NaCNBH₃ was added and the reaction was heated at 70° C. for another 24 h. After cooling to room temperature, the mixture was desalted with the spin column (3,000 molecular weight cut off (MWCO)). […] Sensograms were recorded during flow of the analyte (the ActRIIBecd-associated polypeptides (i.e., domains) as previously described) first through flow cell 1 (control) then through flow cell 2 (biotinylated ActRIIBecd). […] The sensograms obtained at 1.11, 3.33, 10, 30, and 90 nM analyte were evaluated for equilibrium binding, association rate, and dissociation rate by using the programs supplied with the instrument (BIA evaluation 2.1; Software Handbook. 1995; Pharmacia Biosensor AB).
On the technique in general: Surface plasmon resonance follows binding to a sensor surface in real time, without labels.

The target in test [2] is T1, extracellular domain of activin …. As to the kind of experiment: BIAcore SPR, biotinylated ActRIIBecd on chip; SD ±11.61 nM. As for the experimental part:
as §1

Test [3] shares this target. Put plainly: BIAcore SPR, biotinylated ActRIIBecd on chip; SD ±12.04 nM. As for the experimental part:
as §1

Test [4] has the same target. As to the kind of experiment: BIAcore SPR, biotinylated ActRIIBecd on chip; SD ±14.25 nM. As for the experimental part:
as §1

Test [5] shares this target. As to the kind of experiment: BIAcore SPR, biotinylated ActRIIBecd on chip; SD ±14.78 nM. As for the experimental part:
as §1

Test [6] shares this target. Put plainly: BIAcore SPR, biotinylated ActRIIBecd on chip; SD ±13.42 nM. On the procedure:
as §1

For test [7] the target is unchanged. As to the kind of experiment: BIAcore SPR, biotinylated ActRIIBecd on chip; SD ±13.24 nM. On the procedure: as §1
Test [8] has the same target. As to the kind of experiment: BIAcore SPR, biotinylated ActRIIBecd on chip; SD ±12.07 nM. On the procedure: as §1
The target is the same in test [9]. Put plainly: BIAcore SPR, biotinylated ActRIIBecd on chip; SD ±13.03 nM. On the procedure:
as §1

The target is the same in test [10]. As to the kind of experiment: BIAcore SPR, biotinylated ActRIIBecd on chip; SD ±13.97 nM. On the procedure:
as §1

For test [11] the target is unchanged. As to the kind of experiment: Mean KD column of Table 5; method not restated (BIAcore as Example 5); species also listed in Table 4. An outline of the steps:
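SPR, 25° C, 10 μl/min. Streptavidin surface carrying biotin-ActRIIBecd (50-250 RU); analyte series 1.11-90 nM in pH 4.5 glycine buffer. Control cell subtracted; kinetics and equilibrium binding fitted.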

For test [12] the target is unchanged. Put plainly: BIAcore SPR as Example 5 (method not restated); SD ±2.12 nM. As for the experimental part: as §1
Test [13] has the same target. Put plainly: BIAcore SPR, biotinylated ActRIIBecd on chip; SD ±12.01 nM. As for the experimental part:
as §1

Test [14] has the same target. As to the kind of experiment: BIAcore SPR, biotinylated ActRIIBecd on chip; SD ±16.71 nM. As for the experimental part:
as §1

Test [15] has the same target. Put plainly: BIAcore SPR, biotinylated ActRIIBecd on chip; SD ±15.39 nM. As for the experimental part: as §1
The target is the same in test [16]. As to the kind of experiment: BIAcore SPR, biotinylated ActRIIBecd on chip; SD ±12.10 nM. As for the experimental part: as §1
For test [17] the target is unchanged. As to the kind of experiment: BIAcore SPR, biotinylated ActRIIBecd on chip; SD ±10.27 nM. As for the experimental part:
as §1

The target is the same in test [18]. As to the kind of experiment: BIAcore SPR, biotinylated ActRIIBecd on chip; SD ±13.21 nM. As for the experimental part: as §1

Substitutions are numbered along the chain they refer to.

B1: Recombinant polypeptide of clones 10 + 15 + 21 (designed binder)
chain: AQAKHKQRKRLKSSCKRHPLYVDFSDVGWNDWIVAPPGYHAFYCHGECPFPLADHLNSTNHAIVQTLVNSVNSKIPKACCVPTELSAISMLYLDENEKVVLKNYQDMVVEGCGCR
In [1], B1 gave a Kd of 17.2 nM.

B2: Recombinant polypeptide of clones 10 + 14 + 21 (designed binder)
chain: B1 chain with S25K, W32H, I33A, T59D, L67K
In test [2], B2 came in with a Kd of 18 nM. That is a double-digit nanomolar value.

B3: Recombinant polypeptide of clones 8 + 15 + 19 (designed binder)
chain: B1 chain with A1G, H5R, Q7G, R8Y, I75D, I88P, M90P, V99P, E110H
B3 displayed a Kd in test [3] of 16.5 nM. That is a double-digit nanomolar value.

B4: Recombinant polypeptide of clones 21 + 10 + 15 (designed binder)
chain: NSKIPKACCVPTELSAISMLYLDENEKVVLKNYQDMVVEGCGCRAQAKHKQRKRLKSSCKRHPLYVDFSDVGWNDWIVAPPGYHAFYCHGECPFPLADHLNSTNHAIVQTLVNSV
As for B4, the Kd in test [4] came out at 16.7 nM.

B5: Recombinant polypeptide of clones 14 + 8 + 19 (designed binder)
chain: VDFKDVGWNDHAVAPPGYHAFYCHGECPFPLADHLNSDNHAIVQTKVNSVGQAKRKGYKRLKSSCKRHPLYNSKDPKACCVPTELSAPSPLYLDENEKPVLKNYQDMVVHGCGCR
In [5], B5 displayed a Kd of 17.6 nM.

B6: Recombinant polypeptide of clones 8 + 19 (designed binder)
chain: GQAKRKGYKRLKSSCKRHPLYNSKDPKACCVPTELSAPSPLYLDENEKPVLKNYQDMVVHGCGCR
As for B6, the affinity in test [6], expressed as Kd, was 31.1 nM. That is a double-digit nanomolar value.

B7: Recombinant polypeptide of clones 8 + 14 + 19 (designed binder)
chain: GQAKRKGYKRLKSSCKRHPLYVDFKDVGWNDHAVAPPGYHAFYCHGECPFPLADHLNSDNHAIVQTKVNSVNSKDPKACCVPTELSAPSPLYLDENEKPVLKNYQDMVVHGCGCR
The molecule B7 displayed a Kd in test [7] of 15.6 nM.

B8: Recombinant polypeptide of clones 14 + 19 (designed binder)
chain: VDFKDVGWNDHAVAPPGYHAFYCHGECPFPLADHLNSDNHAIVQTKVNSVNSKDPKACCVPTELSAPSPLYLDENEKPVLKNYQDMVVHGCGCR
In [8], B8 showed a Kd of 31 nM. This counts as double-digit nanomolar.

B9: Recombinant polypeptide of clones 19 + 14 (designed binder)
chain: NSKDPKACCVPTELSAPSPLYLDENEKPVLKNYQDMVVHGCGCRVDFKDVGWNDHAVAPPGYHAFYCHGECPFPLADHLNSDNHAIVQTKVNSV
Consider B9, for which, in [9], the Kd amounted to 32.1 nM.

B10: Recombinant polypeptide of clones 10 + 19 + 14 (designed binder)
chain: AQAKHKQRKRLKSSCKRHPLYNSKDPKACCVPTELSAPSPLYLDENEKPVLKNYQDMVVHGCGCRVDFKDVGWNDHAVAPPGYHAFYCHGECPFPLADHLNSDNHAIVQTKVNSV
In test [10], B10 gave a Kd of 17 nM.

B11: SEQ ID NO: 188, cysteine pairs C15-C44^a (designed binder)
chain: AQAKHKQRKRLKSSCKRHPLYVDFSDVGWNDWIVAPPGYHAFYCHGECPFPLADHLNSTNHAIVQTLVNSV
modifications: disulfides C15-C44 (intra)
As for B11, the Kd in test [11] and in test [12] was 42.3 nM throughout.

B12: Recombinant polypeptide of clones 19 + 8 + 14 (designed binder)
chain: NSKDPKACCVPTELSAPSPLYLDENEKPVLKNYQDMVVHGCGCRGQAKRKGYKRLKSSCKRHPLYVDFKDVGWNDHAVAPPGYHAFYCHGECPFPLADHLNSDNHAIVQTKVNSV
In [13], B12 returned a Kd of 16 nM. That is a double-digit nanomolar value.

In turn, AQAKHKGYKRLKSSCKRHPLY [Clone No. 9 domain (ActRIIBecd-associated polypeptide)] showed an equilibrium dissociation constant (Kd) in test [14] of 52.4 nM.

GQAKRKGYKRLKSSCKRHPLY [Clone No. 8 domain (ActRIIBecd-associated polypeptide)] displayed a Kd in test [15] of 45.1 nM.

B13: Recombinant polypeptide of clones 8 + 21 + 15 (designed binder)
chain: GQAKRKGYKRLKSSCKRHPLYNSKIPKACCVPTELSAISMLYLDENEKVVLKNYQDMVVEGCGCRVDFSDVGWNDWIVAPPGYHAFYCHGECPFPLADHLNSTNHAIVQTLVNSV
With B13, the affinity in test [16], expressed as Kd, was 17.1 nM.

B14: Recombinant polypeptide of clones 19 + 14 + 8 (designed binder)
chain: NSKDPKACCVPTELSAPSPLYLDENEKPVLKNYQDMVVHGCGCRVDFKDVGWNDHAVAPPGYHAFYCHGECPFPLADHLNSDNHAIVQTKVNSVGQAKRKGYKRLKSSCKRHPLY
In turn, B14 yielded a Kd in [17] of 14.1 nM. That is a double-digit nanomolar value.

B15: Recombinant polypeptide of clones 15 + 10 + 21 (designed binder)
chain: VDFSDVGWNDWIVAPPGYHAFYCHGECPFPLADHLNSTNHAIVQTLVNSVAQAKHKQRKRLKSSCKRHPLYNSKIPKACCVPTELSAISMLYLDENEKVVLKNYQDMVVEGCGCR
In turn, B15 came in with a Kd in test [18] of 15.1 nM.

The Kd is the constant that tells how readily two partners part at equilibrium. A high value points to weaker binding.

The values above are taken from patent publication US20190071480A1 (Biogen, published 2019).
